Measured values taken from PMC10214663.

Target: FGF4-Fc (human) (UniProt P08620)
Assay: BLI; Octet RED K2; FGF4-Fc (25 µg/mL) on Protein-A sensors, galectins at 0.2 µM to 6 µM; heterogeneous ligand (2:1) model; steady-state analysis for galectin-1

FGF4-Fc (human), sequence (P08620 31-206): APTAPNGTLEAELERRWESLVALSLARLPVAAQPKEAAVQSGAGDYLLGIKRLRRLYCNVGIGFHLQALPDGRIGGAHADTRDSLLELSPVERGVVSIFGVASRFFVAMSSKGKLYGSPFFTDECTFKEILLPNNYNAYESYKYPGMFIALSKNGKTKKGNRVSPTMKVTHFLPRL

## galectin-8 (natural protein)
  KD1: 724 nM
  KD2: 140 nM
  KOff1: 0.0755 s⁻¹
  KOff2: 0.000115 s⁻¹
  Kon1: 104000 M⁻¹ s⁻¹
  Kon2: 823 M⁻¹ s⁻¹
